For assay [1], the target named is T1, recombinant human DLL4 (Cat# 1506-D4/CF, R&D Systems) (human, UniProt Q9NR61 27-529).
T1 construct: Bought protein; also called hDLL4; h DLL4
The assay can be described thus: ELISA, hDLL4 coated 0.5 ng/ul, Fab 2.50 nM. As to the method: (§1) In this example, an ELISA binding assay was used to assess the dose-dependent binding of Fab antibodies to recombinant human DLL4 and recombinant mouse DLL4.
(§2) The plate was blocked by adding 1% BSA in Tris-buffered Saline Tween (TBST) and incubating for 1 hour at room temperature followed by washing 2 times with 150 μl TBST. A Fab antibody was serially diluted in 1% BSA in PBS. A 50 μl aliquot of each serial dilution was added, in triplicate, to each well and the plate was incubated for 1 hour at room temperature followed by washing 2 times with TBST. 50 μl of either goat anti-human kappa HRP conjugated secondary antibody (Cat # A7164-1 mL, Sigma-Aldrich) or goat anti-human lambda HRP conjugated secondary antibody (Cat # L1645-1 ml, Sigma-Aldrich), diluted 1:1000 in 1% BSA in PBS, was added to each well and the plate was incubated for 30 minutes at room temperature followed by washing 3 times with 200 μl TBST. Finally, 50 μl TMB one-component reagent (Cat # TMBW-1000-01, BioFax) was added and allowed to develop for 2 minutes at room temperature. The reaction was immediately halted by the addition of 50 μl 0.5M H₂SO₄ and the absorbance at 450 nm was measured using an ELISA plate reader.
For orientation: In an ELISA, binding on a coated surface is turned into a signal by an enzyme label.

The target in assay [2] is T1, recombinant human DLL4 (Cat# …). The assay can be described thus: ELISA, hDLL4 coated 0.5 ng/ul, Fab 0.08 nM. As to the method: as §2
Assay [3] deals with T2, recombinant mouse DLL4 (Cat# 1389-D4-050/CF, R&D Systems) (mouse, UniProt Q9JI71 28-525).
T2 construct: Bought protein; also called mDLL4
The assay can be described thus: ELISA, mDLL4 coated 0.5 ng/ul, Fab 0.31 nM. As to the method: as §2

Assay [4] addresses T2, recombinant mouse DLL4 (Cat# …). The assay can be described thus: ELISA, mDLL4 coated 0.5 ng/ul, Fab 0.16 nM. On the procedure: as §2
The target is the same in assay [5]. Put plainly: ELISA, mDLL4 coated 0.5 ng/ul, Fab 5.00 nM. On the procedure:
as §1, §2

Assay [6] shares this target. The assay can be described thus: ELISA, mDLL4 coated 0.5 ng/ul, Fab 1.25 nM. On the procedure:
as §1, §2

Assay [7] has as its target T1, recombinant human DLL4 (Cat# …). The assay can be described thus: ELISA, hDLL4 coated 0.5 ng/ul, Fab 1.25 nM. On the procedure:
as §1, §2

Assay [8] shares this target. The assay can be described thus: ELISA, hDLL4 coated 0.5 ng/ul, Fab 0.31 nM. On the procedure:
as §1, §2

The target of assay [9] is T2, recombinant mouse DLL4 (Cat# …). Put plainly: ELISA, mDLL4 coated 0.5 ng/ul, Fab 0.63 nM. On the procedure: as §2
For assay [10], the target named is T1, recombinant human DLL4 (Cat# …). The assay can be described thus: ELISA, hDLL4 coated 0.5 ng/ul, Fab 5.00 nM. As to the method:
as §1, §2

The target of assay [11] is T2, recombinant mouse DLL4 (Cat# …). The assay can be described thus: ELISA, mDLL4 coated 0.5 ng/ul, Fab 2.50 nM. As to the method:
as §1, §2

The target is the same in assay [12]. The assay can be described thus: ELISA, mDLL4 coated 0.5 ng/ul, Fab 0.08 nM. On the procedure:
as §2

In assay [13] the target is T1, recombinant human DLL4 (Cat# …). The assay can be described thus: ELISA, hDLL4 coated 0.5 ng/ul, Fab 10.00 nM. As to the method:
as §1, §2

Assay [14] has as its target T2, recombinant mouse DLL4 (Cat# …). The assay can be described thus: ELISA, mDLL4 coated 0.5 ng/ul, Fab 10.00 nM. On the procedure: as §2
Assay [15] addresses T1, recombinant human DLL4 (Cat# …). The assay can be described thus: ELISA, hDLL4 coated 0.5 ng/ul, Fab 0.63 nM. As to the method:
as §2

For assay [16] the target is unchanged. The assay can be described thus: ELISA, hDLL4 coated 0.5 ng/ul, Fab 0.16 nM. On the procedure:
as §1, §2

The target is the same in assay [17]. Put plainly: ELISA, hDLL4 coated 0.5 ng/ul, Fab 12.50 nM. As to the method:
as §2

For assay [18] the target is unchanged. Put plainly: ELISA, hDLL4 coated 0.5 ng/ul, Fab 100.00 nM. As to the method: as §2
Assay [19] has the same target. The assay can be described thus: ELISA, hDLL4 coated 0.5 ng/ul, Fab 6.25 nM. As to the method: as §2
Assay [20] shares this target. The assay can be described thus: ELISA, hDLL4 coated 0.5 ng/ul, Fab 0.78 nM. On the procedure:
as §2

Assay [21] shares this target. The assay can be described thus: ELISA, hDLL4 coated 0.5 ng/ul, Fab 1.56 nM. As to the method:
as §2

For assay [22] the target is unchanged. The assay can be described thus: ELISA, hDLL4 coated 0.5 ng/ul, Fab 3.13 nM. As to the method:
as §2

Assay [23] has the same target. Put plainly: ELISA, hDLL4 coated 0.5 ng/ul, Fab 50.00 nM. As to the method: as §2
The target is the same in assay [24]. Put plainly: ELISA, hDLL4 coated 0.5 ng/ul, Fab 25.00 nM. On the procedure:
as §2

T2 sequence (Q9JI71 28-525 limits assumed): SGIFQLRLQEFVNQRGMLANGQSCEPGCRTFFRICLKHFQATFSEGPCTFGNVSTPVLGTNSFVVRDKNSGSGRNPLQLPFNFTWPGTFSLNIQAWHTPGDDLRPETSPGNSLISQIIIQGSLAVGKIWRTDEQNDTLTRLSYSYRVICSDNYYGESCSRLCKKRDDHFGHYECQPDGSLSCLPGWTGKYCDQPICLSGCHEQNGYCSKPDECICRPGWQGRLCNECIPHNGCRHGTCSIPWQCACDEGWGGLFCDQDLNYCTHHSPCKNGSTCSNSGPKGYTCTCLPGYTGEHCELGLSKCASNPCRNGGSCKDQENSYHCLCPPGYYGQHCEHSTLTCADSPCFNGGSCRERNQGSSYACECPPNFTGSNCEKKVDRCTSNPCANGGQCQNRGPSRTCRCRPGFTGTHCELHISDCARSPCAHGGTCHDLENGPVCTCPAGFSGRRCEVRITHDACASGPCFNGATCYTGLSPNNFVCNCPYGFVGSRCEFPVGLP

B1: Fab VH1-46_IGHD6-6*01_IGHJ1*01 S102A/S103P/S104F/H111F I51V/N52L/S54T/G56H (H:APFF VLTH) & L6_IGKJ1*01 S28N/S30D/S31H (L:NDH) (Fab, V domains shown)
VH: QVQLVQSGAEVKKPGASVKVSCKASGYTFTSYYMHWVRQAPGQGLEWMGIVLPTGHSTSYAQKFQGRVTMTRDTSTSTVYMELSSLRSEDTAVYYCAREEYAPFSAEYFQFWGQGTLVTVSS
VL: EIVLTQSPATLSLSPGERATLSCRASQNVDHYLAWYQQKPGQAPRLLIYDASNRATGIPARFSGSGSGTDFTLTISSLEPEDFAVYYCQQRSNWPPWTFGQGTKVEIKR
notes: Tested as Fab from E. coli (Plasmid A: CH1, His6, Flag; Plasmid C: CL kappa); also called H:APFF VLTH & L:NDH; APFF VLTH / NDH
As to B1, the “ELISA absorbance at 450 nm” value turned out to be 1.83 A450 in assay [1]; 0.189 A450 in [2]; 0.105 A450 in assay [3]; 0.081 A450 in assay [4]; 0.833 A450 in assay [5]; 0.317 A450 in [6]. The “ELISA absorbance at 450 nm” value in assay [7] was 1.4 A450; in [8], 0.683 A450; in [9] it was 0.206 A450; in assay [10] it was 1.92 A450; in [11], 0.583 A450; in assay [12], 0.063 A450. In addition, the “ELISA absorbance at 450 nm” value in assay [13] was determined as 2.25 A450; in assay [14], 1.22 A450; in assay [15], 1.09 A450; in [16], 0.407 A450.

B2: Fab VH1-46_IGHD6-6*01_IGHJ1*01 S102A/S103P/S104F/H111F G56H (H:APFF G56H) & L6_IGKJ1*01 (Fab, V domains shown)
VH: QVQLVQSGAEVKKPGASVKVSCKASGYTFTSYYMHWVRQAPGQGLEWMGIINPSGHSTSYAQKFQGRVTMTRDTSTSTVYMELSSLRSEDTAVYYCAREEYAPFSAEYFQFWGQGTLVTVSS
VL: not shown
notes: Tested as Fab from E. coli: VH cloned into Plasmid A (CH1, His6 and Flag tags), kappa VL into Plasmid C (CL kappa); also called H:APFF G56H & L:wt
Regarding B2, the “ELISA absorbance at 450 nm” value in assay [1] was found to be 0.535 A450; in [2] it was 0.071 A450; in [3], 0.049 A450; in assay [4], 0.048 A450; in assay [5], 0.07 A450; in assay [6], 0.054 A450. The “ELISA absorbance at 450 nm” value came to 0.264 A450 in assay [7]; 0.103 A450 in assay [8]; 0.052 A450 in assay [9]; 0.882 A450 in assay [10]; 0.061 A450 in assay [11]; 0.048 A450 in [12]. Moreover, the “ELISA absorbance at 450 nm” value in assay [13] came out at 1.2 A450; in assay [14], 0.088 A450; in assay [15], 0.168 A450; in assay [16] it was 0.079 A450.

B3: Fab VH5-51_IGHD5-18*01>3_IGHJ4*01 G100K/G104T G24T/S28R/G35V (H:KT TRV) & V3-4_IGLJ1*01 M94R/S96M (L:RM) (Fab, V domains shown)
VH: EVQLVQSGAEVKKPGESLKISCKTSGYRFTSYWIVWVRQMPGKGLEWMGIIYPGDSDTRYSPSFQGQVTISADKSISTAYLQWSSLKASDTAMYYCARRKYSYTYDYFDYWGQGTLVTVSS
VL: QTVVTQEPSFSVSPGGTVTLTCGLSSGSVSTSYYPSWYQQTPGQAPRTLIYSTNTRSSGVPDRFSGSILGNKAALTITGAQADDESDYYCVLYRGMGISYVFGTGTKVTVL
notes: Tested as Fab from E. coli (Plasmid A: CH1, His6, Flag; Plasmid E: CL lambda); also called H:KT TRV & L:RM; KT TRV / RM
For B3, the “ELISA absorbance at 450 nm” value amounted to 0.294 A450 in assay [17]; 1.07 A450 in [18]; 0.229 A450 in assay [19]; 0.145 A450 in assay [20]; 0.148 A450 in assay [21]; 0.167 A450 in assay [22]. Besides, the “ELISA absorbance at 450 nm” value in assay [23] stood at 0.661 A450; in [24], 0.421 A450.

B4: Fab VH5-51_IGHD5-18*01>3_IGHJ4*01 G100K/G104T S28R (H:KT S28R) & V3-4_IGLJ1*01 (Fab, V domains shown)
VH: EVQLVQSGAEVKKPGESLKISCKGSGYRFTSYWIGWVRQMPGKGLEWMGIIYPGDSDTRYSPSFQGQVTISADKSISTAYLQWSSLKASDTAMYYCARRKYSYTYDYFDYWGQGTLVTVSS
VL: QTVVTQEPSFSVSPGGTVTLTCGLSSGSVSTSYYPSWYQQTPGQAPRTLIYSTNTRSSGVPDRFSGSILGNKAALTITGAQADDESDYYCVLYMGSGISYVFGTGTKVTVL
notes: Tested as Fab from E. coli (Plasmid A: CH1, His6, Flag); Plasmid E: CL lambda; also called H:KT S28R & L:wt
Take B4: the “ELISA absorbance at 450 nm” value in assay [17] is 0.226 A450; in assay [18], 0.67 A450; in assay [19] it was 0.203 A450; in assay [20], 0.138 A450; in assay [21], 0.148 A450; in assay [22] it was 0.164 A450. In addition, the results for the “ELISA absorbance at 450 nm” value in assay [23] and in assay [24] were 0.524 A450 and 0.333 A450, respectively.

Values taken from patent US20110318339A1 (FABRUS, published 2011).
